Results published in article PMC6697735, “Generation of amine dehydrogenases with increased catalytic performance and substrate scope from ε-deaminating L-Lysine dehydrogenase” (Nature Communications, 2019).

Tests used:
[1] = molecular target: T1, LE-AmDH-v1 (ε-deaminating L-lysine dehydrogenase LysEDH F173A) (Geobacillus stearothermophilus, UniProt Q9AJC6, F173A); assay: steady-state kinetics, Lineweaver-Burk competitive product inhibition, NADH oxidation at […] nm, […] °C; type: biochemical
T1 construct: gene lysDH

[2] = tested on: CC(=O)c1ccccc1; assay: purified protein; settings: NADH model: phenyl ring in the new hydrophobic cavity created by F173A
[3] = tested on: O=Cc1ccccc1; assay: purified protein; settings: NADH

C[C@@H](N)c1ccccc1 [(R)-8b]
Ki [1]: 4.48 mM

LE-AmDH-v1 (ε-deaminating L-lysine dehydrogenase LysEDH F173A) (Geobacillus stearothermophilus; F173A)
Km [2]: 5.5 ± 0.5 mM | Km [3]: 4.9 ± 0.5 mM
